Here are results for one molecule from PMC4801485.

This test addresses cyclophilin from Geobacillus kaustophilus (Geobacillus kaustophilus). In words: NMR line shape analysis.

For the molecule GSFGPDLRAGD [peptide substrate …], the koff of the trans isomer (kBA) is 720 s⁻¹ and the kon of the trans isomer (kAB) turned out to be 5.2e+06 s⁻¹ M⁻¹.
